Results on two molecules are retold here after patent US20170360770A1.

One may read the Kd as the free concentration of one partner at which half of the binding sites on the other are occupied at equilibrium, for simple one-to-one binding. Low readings indicate higher affinity, high ones lower affinity.

For assay [1], the target named is human leukocyte antigen-DR (HLA-DR), on human cancer cell lines (human). Put plainly: cell-based ELISA on HLA-DR positive human melanoma cell line (printed A-374). On the technique in general: An ELISA detects its analyte on a solid surface through an enzyme-linked reagent.
Assay [2] shares this target. Put plainly: cell-based or functional assay.
For assay [3] the target is unchanged. Put plainly: chemiluminescent cell-binding assay on SK-MEL-2 human melanoma cells.
Assay [4] has the same target. The assay can be described thus: chemiluminescent cell-binding assay on SK-MEL-5 human melanoma cells.
The target is the same in assay [5]. Put plainly: chemiluminescent cell-binding assay on A-375 human melanoma cells.
Assay [6] shares this target. Put plainly: FACS, AlexaFluor-647-labeled IMMU-114 on MN-60 ALL cells. In general terms: A flow cytometer gives signals particle by particle.
Assay [7] has the same target. Put plainly: FACS, AlexaFluor-647-labeled IMMU-114 on MOLM-14 AML cells.
Assay [8] has the same target. Put plainly: chemiluminescent cell-binding assay (LUMIGLO), 2 µg/mL antibody on A-375 human melanoma cells, at both 4° C. and RT.
Assay [9] shares this target. Put plainly: chemiluminescent cell-binding assay (LUMIGLO), 2 µg/mL antibody on A-375 cells; reference: humanized anti-CD22 control antibody.
Assay [10] shares this target. The assay can be described thus: chemiluminescent cell-binding assay on SK-MEL-28 human melanoma cells.
For assay [11] the target is unchanged. The assay can be described thus: FACS, AlexaFluor-647-labeled IMMU-114 on JVM-3 CLL cells.
For assay [12] the target is unchanged. Put plainly: FACS, AlexaFluor-647-labeled IMMU-114 on CAG MM cells.

Molecule “IMMU-140 (hL243-CL2A-SN-38), anti-HLA-DR antibody drug conjugate” yielded a Kd in assay [1] of 0.77 nM. Besides, in assay [2], the IC50 (nM), in vitro cytotoxicity, CAG (MM) cells, MTS 96 h (nM (SN-38 equivalents)) turned out to be 7.05; the IC50 (nM), in vitro cytotoxicity, JVM-3 (CLL) cells, MTS 96 h (nM (SN-38 equivalents)) turned out to be 0.77; the IC50 (nM), in vitro cytotoxicity, MN-60 (ALL) cells, MTS 96 h (nM (SN-38 equivalents)) amounted to 1.29; the IC50 (nM), in vitro cytotoxicity, MOLM-14 (AML) cells, MTS 96 h (nM (SN-38 equivalents)) was 1.21.

B1: IMMU-114 (hL243), humanized anti-HLA-DR IgG4 monoclonal antibody (antibody, from a related filing, V domains shown)
VH: QVQLQQSGSELKKPGASVKVSCKASGFTFTNYGMNWVKQAPGQGLKWMGWINTYTREPTYADDFKGRFAFSLDTSVSTAYLQISSLKADDTAVYFCARDITAVVPTGFDYWGQGSLVTVSS
VL: DIQLTQSPSSLSASVGDRVTITCRASENIYSNLAWYRQKPGKAPKLLVFAASNLADGVPSRFSGSGSGTDYTFTISSLQPEDIATYYCQHFWTTPWAFGGGTKLQIKR
As for B1, the fold above background in [3] came out at 2 fold. This molecule also had a fold above background in [4] of 12 fold. This molecule also gave a fold above background in assay [5] of 48 fold. In assay [6], this molecule registered a Mean fluorescence intensity (MFI) of 65800 MFI. In assay [7], the Mean fluorescence intensity (MFI) turned out to be 5750 MFI. In addition, the fold mean luminescence over background in assay [8] was greater than 48 fold. The Kd in assay [1] was found to be 0.65 nM. Further, in assay [2], the IC50 (nM), in vitro cytotoxicity, CAG (MM) cells, MTS 96 h was greater than 40 nM; the IC50 (nM), in vitro cytotoxicity, JVM-3 (CLL) cells, MTS 96 h is 1.52 nM; the IC50 (nM), in vitro cytotoxicity, MN-60 (ALL) cells, MTS 96 h was greater than 40 nM; the IC50 (nM), in vitro cytotoxicity, MOLM-14 (AML) cells, MTS 96 h was greater than 40 nM. In addition, in assay [2], the Maximum % Inhibition at 40 nM, CAG (MM) cells turned out to be 28%; the Maximum % Inhibition at 40 nM, JVM-3 (CLL) cells is 65%; the Maximum % Inhibition at 40 nM, MN-60 (ALL) cells worked out at 37%; the Maximum % Inhibition at 40 nM, MOLM-14 (AML) cells was determined as 11%. This molecule also came in with a fold mean luminescence over non-specific control in assay [9] greater than 25 fold. The fold above background in assay [10] stood at 25 fold. Also, in [11], the Mean fluorescence intensity (MFI) is 78700 MFI. The Mean fluorescence intensity (MFI) in [12] is 80700 MFI.
